Experimental data published in a protein production outcome set (Wang et al. 2014).

Test: label from the status in PepcDB records

Sequence | protein production
MAGLAARLVLLAGAAALASGSQGDREPVYRDCVLQCEEQNCSGGALNHFRSRQPIYMSLAGWTCRDDCKYECMWVTVGLYLQEGHKVPQFHGKWPFSRFLFFQEPASAVASFLNGLASLVMLCRYRTFVPASSPMYHTCVAFAWVSLNAWFWSTVFHTRDTDLTEKMDYFCASTVILHSIYLCCVRTVGLQHPAVVSAFRALLLLMLTVHVSYLSLIRFDYGYNLVANVAIGLVNVVWWLAWCLWNQRRLPHVRKCVVVVLLLQGLSLLELLDFPPLFWVLDAHAIWHISTIPVHVLFFSFLEDDSLYLLKESEDKFKLD | failed
MAGNSLVLPIVLWGRKAPTHCISSILLTDDGGTIVTGCHDGQICLWDVSVELEVNPRALLFGHTASITCLSKACASGDKRYTVSASANGEMCLWDVNDGRCIEFTKLACTHTGIQFYQFSVGNQQEGRLLCHGHYPEILVVDATSLEVLYSLVSKISPDWISSMSIIRSQRTQEDTVVALSVTGILKVWIVTSEMSGMQDTEPIFEEESKPIYCQNCQSISFCAFTQRSLLVVCSKYWRVFDAGDYSLLCSGPSENGQTWTGGDFVSADKVIIWTENGQSYIYKLPASCLPASDSFRSDVGKAVENLIPPVQHSLLDQKDKELVICPPVTRFFYGCKEYLHKLLIQGDSSGRLNIWNIADIAEKQEADEGLKMTTCISLQEAFDKLKPCPAGIIDQLSVIPNSNEPLKVTASVYIPAHGRLVCGREDGSIIIVPATQTAIVQLLQGEHMLRRGWPPHRTLRGHRNKVTCLLYPHQVSARYDQRYLISGGVDFSVIIWDIFSGEMKHIFCVHGGEITQLLVPPENCSVSRFI | failed
MAGRRMKRLRAFFYVQHLLGIGHLARASRIAAALADDGFDITVVTGGPPIAGFPGQGVKSVTLPPVTSGDNGFSGLVDLQGKPIDDDFKKRRSEMLLQAFRDCRPDIVIVEAFPFGRRQMRFELLPLLETIEATSPRPLLATSVRDILQERVKPGRNEETVDLINRHFDLVMVHGDPAFTTIDKTFPLAGAITAEVTYTGLVGAPPSPAAAERFDILVSVGGGAAGRRLVSSTLAAARIANGWKWCLITGPNLPKDEFDVIACDATPGLSIFRFREDFASLLTGARLSVSQAGYNTVCDVLRAGCRSLLVPFAAGGETEQTVRALMLEELGLATVLTENDLTPDGLAQAIEQALAGPTPSAHRLDLEGARHSAQILRERYRTWSLKMGSGFGKEHDQTDDGS | failed
MAGSVACRLRPGMAAGGTGMKRYVIFAAIGPLIGGLLLLFATTYQSGYWAHTNLTEVQKFFVVLFKSLQYSYLFGLLPALMMAAIDEIICHIRRVGPGGRVVIVGVIGFLATAFMYGNRGADAGVLQFVLYGLVGLVPATLSSWLANKFCAPVTAETKPASA | failed
MAGSVADSDAVVKLDDGHLNNSLSSPVQADVYFPRLIVPFCGHIKGGMRPGKKVLVMGIVDLNPESFAISLTCGDSEDPPADVAIELKAVFTDRQLLRNSCISGERGEEQSAIPYFPFIPDQPFRVEILCEHPRFRVFVDGHQLFDFYHRIQTLSAIDTIKINGDLQITKLG | failed
MAGTDFEPDVKVRSREYRIGCVGAGMIMAECHLAAYAQAGFPVVAIASRTKASAEKVARRWDIPIVHDTPEQLIEDSKVEIVDLAFPPDQQPALIRHALKQPHIKAILAQKPLALTVEEAIKLRDEAAKSGKILSVNQNMRYDQSMRVLKQIIDSGALGDIVFAQIDMHAIPHWQAFLADYDRLTLANMSVHHLDVLRFLFGDPHEITTLTRKDPRTTFDHSDGITVSTLRFPSGVLAVSLEDVWSGPREQGYRDDQHINWRVDGTKGVAKGTIGWPTGVASTLTYASTQTTGGEWVTPSWDTMWFPHAFIGVMEQLQYAVKTGTPPALSVADNVKTMALVEAGYRSMAEGRTVRLSEISTN | failed
MAGTIAIKNGYVFDPLNEINGEKMDIFIRDGKVVKELSASEMKTSRVIDASGMTVMPGGVDSHSHVAGAKVNAGRSMRPEDHYKANLKKTPLTHSGSGYTVPSVYKQGYDYAAMGYTTVFEAAVPPLEARHTHEEMRATPLLDMGGYLVLGNNFFLMRYLRDGDMEKAAAYVAWMMKTHKTYGIKCVNPAGVENWAWGKNVSTLDETNIHFEITPREVIKGLTEVNETLGMPMPVHLHANNLGHPGCYAITKDSLKIPDGVKTKQNMAVEWAETKMDLSRDRSVYLTHLMFNSFAGTTWGDCESGVKDIADYINNKDHVVIDSGCTPFGEATVMTGDGPAIHDLYTLTGNKWSNTDVEMECGSGVLPFTYLKSNPVHSLQWAMGLECLLLIKDPWKTIMTTDSPNGGPFTKYPEVMTWIMSEAFRKQTFSECHKWANDRSELGGINRELSLYDLAILTRANPAKTIGMAHRKGSLGVGADGDVTVYNINPQQLDANNYEALLRTFRKAEYTVKGGEIVAVKGEIVSLPEKRTYYSEVHVENEREKEMLVDVKEWFRYYTLGFANYSTPEKYLANPTPIQVNSER | failed
MAGYVGDVAIAYDRDLGHVLFEQYASDIARRTAGKPVRDVLEVASGTGIVTRQLRNVLPGDAQLTAIDISDSMMEVARTKFLPHEQVTFQVANAVALPFDDRAFDTVVCQFGVMFFDKDKAFQETHRVLRQGGRYLFSVWDSRDYNPYASLTFEVMKQFFPSDPPRFLESTVSSFEIDPVKERLIRAGFEQISISVQRRIYDIPDIRAFARGLIFSPIINEIRERGEVDPDDIVEALVKIFIGEYGSNPTRFPMQAILFETEKPLEHHHHHH | failed
MAHHTKETMELIKELVSIPSPSGNTAKIINFIENYVSEWNVETKRNNKGALILTVKGKNDAQHRLLTAHVDTLGAMVKEIKPDGRLSLSMIGGFRWNSVEGEYCEIETSSGKTYTGTILMHQTSVHVYKDAGEAKRDEKNIEVRIDERVFSADEVRELGIEVGDFVSFDPRVQITESGYIKSRHLDDKVSVAILLKLIKRLQDENVTLPYTTHFLISNNEEIGYGGNSNIPEETVEYLAVDMGALGDGQASDEYTVSICAKDSSGPYHYALRKHLVELAKTNHIEYKVDIYPYYGSDASAAIRAGFDVKHALIGAGIDSSHAFERTHESSIAHTEALVYAYVMSNLIEE | not failed
MAHRTWGGRFGEGPDALAARFNASLAFDRALWREDLWQNRVHARMLHAVGLLSAEELEAILKGLDRIEEEIEAGTFPWREELEDVHMNLEARLTELVGPPGGKLHTARSRNDQVATDLRLYLRGAIDELLALLLALRRVLVREAEKHLDPLYVLPGYTHLQRAQPVLLAHWFLAYYEMLKRDAGRLEDAKERLNESPLGAAALAGTGFPIDRHFTARELGFKAPMRNSLDAVASRDFALEVLSALNIGMLHLSRMAEELILYSTEEFGFVEVPDAFATGSSIMPQKKNPDILELIRAKAGRVLGAFVGLSAVVKGLPLAYNKDLQEDKEPLLDALATYRDSLRLLAALLPGLKWRRERMWRAAEGGYTLATELADYLAEKGLPFREAHHVVGRLVRRLVEEGRALKDLTLEELQAHHPLFAEDALPLLRLETAIHRRRSYGGTAPEAVRERLEEAKKEVGLD | not failed
MAHSGDNHSSEFCMLRSLSASIGADPLLVQGAGGNTSIKQAGVLWIKASGTWLKNARDDEIMVPVALAPLLDAVSHRSPAAEAAGQFTLADLNPRQLRPSIETTVHALLPQKIVVHVHCVETISIAVQANAEALLEGRLRGLDWAFVPYRRPGLPLAQAIAERLKPATNVLVLGNHGLVVAADTVAEAALLLQRVTGLLARQPRPAPPPDLDALLRLAAGSDYRLPASTAAHAVATDLASCRIAASGSLYPDHVIFLGVGSVIAGPGENAAAVVARTAAAPTSILFPGKGVLMRREANAGAEAMARCLADVVARVDGAARVNYLSPKENAELLNWDAEKYRQQLNREGATLQLEHHHHHH | failed
MAIAFHTFLLQLLLFFFASFAEANDSRKTYLVQMKVGGHRYGSSSGHQELLGEVLDDDSYKESFTGFSASLTPRERQKLMSKTTTVSSRRREVLEVSRSRNLKLQTTRSWDFMNLTLKAERNPENESDLVVAVIDSGIWPYSELFGSDSPPPPGWENKCENITCNNKIVGARSYYPKKEKYKWVEEKSVIDVTGHGTHVASIVAGRKVEKAGYFGLAEGTMRGGVPNAKIAVYKTCWRVIRKNGREDSVCREDNILKAIDDAIADKVDIISYSQGFQFTPLQKDKVSWAFLRALKNGILTSAAAGNYANNGKFYYTVANGAPWVMTVAASLKDRIFETKLELEGEDKPIIVYDTINTFETQDSFYPLLNEKAPPESTRKRELIAERNGYSILSNYDEKDKGKDVFFEFAQINLLDEAIKEREKGAIVLGGKSYDFNESIKLQFPIASIFLDEQKKGKLWDYYKKDQSKERLAKIHKTEEIPREEGWVPTVAHLSSRGPNCDSFLANILKPDIAAPGLDIIAGWPENVKLSSDRPANDYRHLRFNIMSGTSMACPHATGLALYLKSFKRWSPSAIKSALMTTSSEMTDDDNEFAYGSGHLNATKVRDPGLVYETHYQDYIDYLCKLGYNTEKLRSHVGSDKIDCSKTEIDHDADLNYPTMTARVPLPLDTPFKKVFHRTVTNVNDGEFTYLREINYRGDKDFDEIIVDPPQLKFSELGETKTFTVTVTGISKRNWNKNRAFMTRNTWLTWTEKDGSRQVRSPIVIYSIKGPKACM | failed
MAIAPTIQPLPAPWVARMAAGEVIDSLAAVVRELCENSLDAGTQRLVIDLWPEQWRVRVADDGMGLSLENLQLAALAHTSSKLSPDRFTAEQLGFRGEALHSLARLGRLTIASRTADAAAGWQISYDIGGQPQVATPIAIAPGCIVEVQQLFQDWLERRQSQPSPAQQLRAVQQQIQNLVLAHPSITVQVTQNDRPWLAFAPVHHPQERLLQLLPNTSPADWRSQSLDLGSEGQLQVVVGLPDRCHRRRPDWVKVAVNGRVVRVSELEQAMIGALHRSLPRDRFPVVFAHLQVPPSQVDWHRHPAKAELFLQDLPVWCERIQEAIAQTLPLDPAEEIELPASTALLRVAETTGSYSESPSHLRAIAQVLNTYVLAEQGDSLWLIEQHIAHERVLFEQLQDDWQLVACQQPILLSKLSLEQRLQLDRLGITAEDFGEDLWAIRHIPAALAQREDLVEALLELSRGWDLSAAQAAIACRTAIRNGTLLYPEEQQTLIDRWQHCRQPRTCPHGRPIALVLPETSLARYFRRQWMIGRSHGLGDP | failed
MAICKVFRNYCKENDIQLHQANFSLSYDTNIPRQTGLSGSSAIVSAALNCLLDFYNVRHLIKVQVRPNIVLSAEKELGIVAGLQDRVAQVYGGLVHMDFSKEHMDKLGHGIYTPMDISLLPPLHLIYAENPSDSGKVHSMVRQRWLDGDEFIISSMKEVGSLAEEGRTALLNKDHSKLVELMNLNFDIRRRMFGDECLGAMNIEMVEVARRVGAASKFTGSGGAVVVFCPEGPSQVKLLEEECRKAGFTLQPVKIAPSCLNDSDIQTL | failed
MAIDVCCSEASGSGISPRISFSYDLDSTDDGEVRLDSTLLDSGSEFDFCFGSSCSVQEVSPADELFSEGKILPVQIKKEESLPQTVTFRVPRSASLSSSSSSSSSSSSSSRAPEKKMRLKELLLNPESDFEDKPRGLFLQFKRSISLNYDKSRNSKGLIRSFHFLSRSNSTPNPNLDLLPKETHHPHKTHNLPKHKPPLRRSSSLSSSSVPFYSKKPLGRNSFGNGNGGVRVSPVLNFPPPAFISNVADGFFSIGSLCNGKTNTKTKL | failed
MAIEPSLISSLTWFAHVARHRSFTKAASEMGVTRAALSQHVKGLEKQLQVRLLNRTTRNMSLTEEGQRLLDTLHPSLSNIEQTLNSLNDLHIEPAGLIRISVSRTAARLLIEPHLGEFLSRYPKIRLELIMDDGLTNIVAEGMDAGIRLGVSLDEHMVAIPITPNLTNAIVGSPDYFKRYGKPETPNDLEHHNCLAYRFTSSGTLDHWSLTSPDVDKHTVIFEPKGNAVFNDDYSMLQAAMQGVGLIKHIDLWVLKYLEEGKLERVFVDWCKPFPGFYLYIPSRENMPKKIRVLMDFLIEKRAEL | failed
MAIGERIRFFRNLRGMTQKYLGTVVGFPENTADIRMAQYESGSRTPKADLTENLAGVLGVSPLALSVPDIDSYLGLMHTLFTLEDRYGLTIEKGENGVSMCVDPRKGKDAAELSEMLNAWAKQAEKYHNGDISRELEHHHHHH | not failed
